Experimental data from patent publication US20230020406A1 (published 2023).
Ends that are not written are not given here. * marks the point of attachment. Biotin = O=C1N[C@H]2[C@H](CS[C@H]2CCCCC(=O)*)N1

T1: AA111-228 DNA-binding domain of RXR-alpha (UniProt P19793 111-228)
T1 construct: Bought recombinant protein (Abcam), adsorbed to the plate; also called RXRa-DBD
T1 sequence (looked up): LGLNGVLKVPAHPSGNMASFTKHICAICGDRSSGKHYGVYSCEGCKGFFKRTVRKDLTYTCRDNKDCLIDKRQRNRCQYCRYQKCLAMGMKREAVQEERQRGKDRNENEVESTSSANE


target: T1, AA111-228 DNA-binding domain of …; experiment: plate assay: 1 ug/well RXRa-DBD adsorbed, 800 ng/well SA488-labelled peptide, fluorometer 485/525 nm
Experimental: Experiment x3A. […] 1 ug/well recombinant RXRa-DBD (Abcam, Cambridge, Mass.) was adsorbed to wells of a 96-well plate for 60 minutes at RT, then blocked with 200 uL 1% BSA in PBS buffer overnight. […] The plate was incubated for 60 min at room temperature, washed and counted in a standard fluorometer (excitation/emission 485/525 nm). Background (buffer alone) was subtracted.

Binder	Fluorescence
Biotin-KNGFYHSRQCETSMDGEAGLCW (cysteine pairing not given here; also: complexed with Streptavidin-Alexa 488 conjugate (SA488), Synthetic peptide with an IGFBP-derived core) [immodulator peptide IM1]	670 fluorescence units (background subtracted)
Biotin-KHGLYNLKQCKMSLNGQRGECW (cysteine pairing not given here; also: complexed with Streptavidin-Alexa 488 conjugate (SA488), Synthetic peptide) [immodulator peptide IM2]	2 fluorescence units (background subtracted)
Biotin-RNGNFHPKQCHPALDGQRGKCW (cysteine pairing not given here; also: complexed with Streptavidin-Alexa 488 conjugate (SA488), Synthetic peptide) [immodulator peptide IM4]	27 fluorescence units (background subtracted)
Biotin-KKGFYKKKQCRPSKGRKRGFCW (cysteine pairing not given here; also: complexed with Streptavidin-Alexa 488 conjugate (SA488), IGFBP-3-derived core; also called 1M3) [immodulator peptide IM3]	6570 fluorescence units (background subtracted)

Results, then the binder that gave them:

Fluorescence	Binder
6800 fluorescence units (background subtracted)	Biotin-RKGFYKRKQCKPSRGRKRGICW (cysteine pairing not given here; also: complexed with Streptavidin-Alexa 488 conjugate (SA488), Synthetic peptide; also called 1M5) [immodulator peptide IM5]
587 fluorescence units (background subtracted)	Biotin-HRGFYRKRQCRSSQGQRRGPCW (cysteine pairing not given here; also: complexed with Streptavidin-Alexa 488 conjugate (SA488), Synthetic peptide; also called 1M6) [immodulator peptide IM6]
